Reference: patent US20260234245A1

Columns and labels:
[1] = target: human L1CAM on the surface of human cancer cell lines (human) (UniProt P32004); assay: flow cytometry on HeLa cells, PE-labeled isotype control (background), mean of triplicates
[2] = target: human L1CAM on the surface of human cancer cell lines (human) (UniProt P32004); assay: flow cytometry on SKOV3 cells, PE-labeled isotype control (background), mean of triplicates
[3] = target: human L1CAM on the surface of human cancer cell lines (human) (UniProt P32004); assay: flow cytometry on PC-03 cells, PE-labeled isotype control (background), mean of triplicates
[4] = target: human L1CAM on the surface of human cancer cell lines (human) (UniProt P32004); assay: flow cytometry on Panc-1 cells, PE-labeled isotype control (background), mean of triplicates
[5] = target: human L1CAM on the surface of human cancer cell lines (human) (UniProt P32004); assay: flow cytometry on SKOV3 cells, PE-labeled antibody, mean of triplicates
[6] = target: human L1CAM on the surface of human cancer cell lines (human) (UniProt P32004); assay: flow cytometry on PC-03 cells, against PE-labeled isotype control MOPC-173
[7] = target: human L1CAM on the surface of human cancer cell lines (human) (UniProt P32004); assay: flow cytometry on HeLa cells, against PE-labeled isotype control MOPC-173
[8] = target: human L1CAM on the surface of human cancer cell lines (human) (UniProt P32004); assay: flow cytometry on PC-03 cells, PE-labeled antibody, mean of triplicates
[9] = target: human L1CAM on the surface of human cancer cell lines (human) (UniProt P32004); assay: flow cytometry on HeLa cells, PE-labeled antibody, mean of triplicates
[10] = target: human L1CAM on the surface of human cancer cell lines (human) (UniProt P32004); assay: flow cytometry on Panc-1 cells, against PE-labeled isotype control MOPC-173
[11] = target: human L1CAM on the surface of human cancer cell lines (human) (UniProt P32004); assay: flow cytometry on SKOV3 cells, against PE-labeled isotype control MOPC-173
[12] = target: human L1CAM on the surface of human cancer cell lines (human) (UniProt P32004); assay: flow cytometry on Panc-1 cells, PE-labeled antibody, mean of triplicates

Chain of human L1CAM on the surface of human cancer cell lines (human) (P32004 20-1257): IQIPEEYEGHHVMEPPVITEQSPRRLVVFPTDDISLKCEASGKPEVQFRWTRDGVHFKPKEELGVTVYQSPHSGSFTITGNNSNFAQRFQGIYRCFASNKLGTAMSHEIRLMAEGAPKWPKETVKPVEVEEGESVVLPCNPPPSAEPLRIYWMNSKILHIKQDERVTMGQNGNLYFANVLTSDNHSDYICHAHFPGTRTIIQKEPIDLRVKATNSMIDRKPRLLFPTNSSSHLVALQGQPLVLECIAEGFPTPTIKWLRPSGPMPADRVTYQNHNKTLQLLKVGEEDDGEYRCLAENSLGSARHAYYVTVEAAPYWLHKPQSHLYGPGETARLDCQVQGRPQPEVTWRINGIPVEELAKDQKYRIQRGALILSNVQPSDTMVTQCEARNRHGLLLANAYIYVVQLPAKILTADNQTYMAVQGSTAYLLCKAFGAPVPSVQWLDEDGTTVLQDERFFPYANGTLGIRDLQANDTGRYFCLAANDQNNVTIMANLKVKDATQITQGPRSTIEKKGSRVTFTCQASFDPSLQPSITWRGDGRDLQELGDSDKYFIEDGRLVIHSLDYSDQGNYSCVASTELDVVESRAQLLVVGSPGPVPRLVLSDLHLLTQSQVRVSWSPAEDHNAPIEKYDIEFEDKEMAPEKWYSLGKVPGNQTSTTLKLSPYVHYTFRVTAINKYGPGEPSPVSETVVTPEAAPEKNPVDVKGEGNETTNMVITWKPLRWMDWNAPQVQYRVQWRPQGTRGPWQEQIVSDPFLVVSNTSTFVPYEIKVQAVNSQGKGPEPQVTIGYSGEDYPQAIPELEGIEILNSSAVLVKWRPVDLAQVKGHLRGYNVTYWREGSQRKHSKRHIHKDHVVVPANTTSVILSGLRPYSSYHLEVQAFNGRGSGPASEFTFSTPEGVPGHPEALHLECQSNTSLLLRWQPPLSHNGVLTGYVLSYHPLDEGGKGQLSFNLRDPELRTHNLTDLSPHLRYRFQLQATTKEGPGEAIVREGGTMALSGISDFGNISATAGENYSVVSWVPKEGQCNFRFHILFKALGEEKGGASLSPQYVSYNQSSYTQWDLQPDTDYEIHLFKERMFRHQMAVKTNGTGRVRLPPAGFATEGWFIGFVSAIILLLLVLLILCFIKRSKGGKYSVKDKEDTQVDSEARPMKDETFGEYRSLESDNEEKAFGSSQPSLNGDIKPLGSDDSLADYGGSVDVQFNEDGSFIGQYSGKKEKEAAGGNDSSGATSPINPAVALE

| MFI isotype control antibody [1] [MFI] | MFI isotype control antibody [2] [MFI] | MFI isotype control antibody [3] [MFI] | MFI isotype control antibody [4] [MFI] | MFI anti-L1CAM antibody [5] [MFI] | Fold increase in MFI (anti-L1CAM vs isotype) [6] [fold] | Fold increase in MFI (anti-L1CAM vs isotype) [7] [fold] | MFI anti-L1CAM antibody [8] [MFI] | MFI anti-L1CAM antibody [9] [MFI] | Fold increase in MFI (anti-L1CAM vs isotype) [10] [fold] | Fold increase in MFI (anti-L1CAM vs isotype) [11] [fold] | MFI anti-L1CAM antibody [12] [MFI] | Substance |
| --- | --- | --- | --- | --- | --- | --- | --- | --- | --- | --- | --- | --- |
| 9140 | 8680 | 9420 | 13100 | – | – | – | – | – | – | – | – | PE-labeled mouse IgG2a (κ) (clone MOPC-173, BioLegend) (antibody) |
| – | – | – | – | 1.5e+06 | 5 | 133 | 46400 | 1.22e+06 | 14 | 173 | 183000 | phycoerythrin (PE)-labeled anti-human L1CAM antibody (clone L1-OV198.5, BioLegend) |
